Test results published in patent US20110008340A1 (published 2011).
Where two headings read alike, the source gives them in different places.

What was measured:
human C3b [1] = biological target: T1, human C3b (human, UniProt P01024 23-667; P01024 749-1663); assay: inhibition of properdin binding to C3b (ELISA)
[2] = biological target: Properdin peptide (71-110) …; assay: ELISA saturation binding
human C3b [3] = biological target: T1, human C3b; assay: inhibition of properdin binding to C3b (ELISA); remark: listed apart in the source

Properdin peptide (71-110) …, sequence (peptide, as listed by the source): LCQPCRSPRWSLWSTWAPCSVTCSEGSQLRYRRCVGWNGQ

Binder: CRSPRWSLWS [Properdin peptide CRSPRWSLWS (75-84)]
- IC50 (human C3b [1]): 322 µg/mL

B1: MoAb^71-110 (antibody, V domains shown)
VH: QVLLQQSAPELARPGASVKMSCTASGYIFTNYPIHWVKQRPGQGLEWIGFIDPGGGYDEPDERFRDRATLTADKSSSTAYMQLSSLTSEDSAIYYCARRGGGYYLDYWGQDTTLTVSA
VL: SIVMTQTPKFLLVSAGDRITITCKASQSVNNDVAWYQQKPGQSPKLLIYYASNRYTGVPDRFTGSGYGTDFTFTITTVKAEDLAVYFCQQDYSSPLTFGAGTKLELK
- Kd [2]: 161 nM

Binder: RYRRCVGWNG [Properdin peptide RYRRCVGWNG (99-108)]
- IC50 (human C3b [3]): 301 µg/mL
